# Reference: patent US20260007740A1 (SPYBIOTECH, published 2026)
# B1: RSV-F-SpyTag (RSV-F Sc9-10 DS-Cav1 A149C Y458C-SpyTag-Ctag) (other)
# chain: QNITEEFYQSTCSAVSKGYLSALRTGWYTSVITIELSNIKENKCNGTDAKVKLIKQELDKYKNAVTELQLLMQSTPATGSGSAICSGVAVCKVLHLEGEVNKIKSALLSTNKAVVSLSNGVSVLTFKVLDLKNYIDKQLLPILNKQSCSISNIETVIEFQQKNNRLLEITREFSVNAGVTTPVSTYMLTNSELLSLINDMPITNDQKKLMSNNVQIVRQQSYSIMCIIKEEVLAYVVQLPLYGVIDTPCWKLHTSPLCTTNTKEGSNICLTRTDRGWYCDNAGSVSFFPQAETCKVQSNRVFCDTMNSRTLPSEVNLCNVDIFNPKYDCKIMTSKTDVSSSVITSLGAIVSCYGKTKCTASNKNRGIIKTFSNGCDYVSNKGVDTVSVGNTLYCVNKQEGKSLYVKGEPIINFYDPLVFPSDEFDASISQVNEKINQSLAFIRKSDELLSAIGGYIPEAPRDGQAYVRKDGEWVLLSTFLGSGGSGAHIVMVDAYKPTKEPEA
# notes: Pre-fusion-stabilised single-chain RSV F with T4 fibritin trimerisation motif; Expressed in ExpiCHO cells, purified through the C-tag; also called RSV-F-SpyTag-Ctag; RSF-F-SpyTag
# Target: T1, SpyCatcher-HBsAg (Hepatitis B virus (adw serotype) for …)
# T1 construct: Expressed in Pichia pastoris; also called HBsAg VLP monomer; SpyCatcher-HBsAg VLP
# Assay: isopeptide conjugation in TBS, followed by SDS-PAGE and Western blot
binder,measurement,value
B1,binding result,binds
